The target of the assay is T1, mouse P-selectin (mouse, UniProt Q01102).
T1 chain: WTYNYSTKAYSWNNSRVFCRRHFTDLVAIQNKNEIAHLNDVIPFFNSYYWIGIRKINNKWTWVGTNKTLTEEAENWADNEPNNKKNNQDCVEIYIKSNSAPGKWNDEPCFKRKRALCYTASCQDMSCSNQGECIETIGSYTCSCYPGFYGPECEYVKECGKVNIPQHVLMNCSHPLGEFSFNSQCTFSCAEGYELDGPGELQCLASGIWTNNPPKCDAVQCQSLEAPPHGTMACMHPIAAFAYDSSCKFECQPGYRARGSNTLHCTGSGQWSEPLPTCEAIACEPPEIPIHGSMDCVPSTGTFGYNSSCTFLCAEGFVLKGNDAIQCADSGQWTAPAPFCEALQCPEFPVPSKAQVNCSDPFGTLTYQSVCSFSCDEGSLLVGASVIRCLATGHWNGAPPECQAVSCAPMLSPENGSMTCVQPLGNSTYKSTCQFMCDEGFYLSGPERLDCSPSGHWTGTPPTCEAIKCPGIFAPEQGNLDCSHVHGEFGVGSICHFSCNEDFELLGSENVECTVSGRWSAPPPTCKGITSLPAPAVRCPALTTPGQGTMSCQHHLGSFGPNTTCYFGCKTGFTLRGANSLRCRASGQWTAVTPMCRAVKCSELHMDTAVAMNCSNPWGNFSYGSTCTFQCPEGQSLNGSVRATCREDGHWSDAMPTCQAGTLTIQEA
The assay can be described thus: SPR, 25C. In general terms: In SPR one partner is held on a chip, and binding of the other changes the refractive index at the surface.

B1: NB.PSelscFv-Crry (2.3scFv-Crry, non-blocking) (antibody)
chain: MSVPTQVLGLLLLWLTDARCQIQLVLSGPELKKPGESVKISCKASGYTFTTYGMSWVKQAPGKGLKWMGWINTSSGVPTYADDFKGRFAFSLETSASTAYLQINNLKNEDTATYFCARGGGYYGAYYFYYWGQGTTLTVSSGGGGSGGGGSGGGGSDIQMTQSPASLSASVGETVTITCRTSDNINSYLAWYLQRQGKSPQLLVYNAKTLTEGVPSRFSGSGSGTQFSLKINSLQPEDFGSYYCQHHYGPPPTFGGGTKLEIKGGGGSGGGGSCPAPSQLPSAKPINLTDESMFPIGTYLLYECLPGYIKRQFSITCKQDSTWTSAEDKCIRKQCKTPSDPENGLVHVHTGIQFGSRINYTCNQGYRLIGSSSAVCVITDQSVDWDTEAPICEWIPCEIPPGIPNGDFFSSTREDFHYGMVVTYRCNTDARGKALFNLVGEPSLYCTSNDGEIGVWSGPPPQCIELNKCTPPPYVENAVMLSENRSLFSLRDIVEFRCHPGFIMKGASSVHCQSLNKWEPELPSCFKGVICRLPQEMSGFQKGLGMKKEYYYGENVTLECEDGYTLEGSSQSQCQSDGSWNPLLAKCVSRSIIEGRHHHHHH
A word on the Kd: it is the constant that tells how readily two partners part at equilibrium. The low end stands for tighter binding, the high end for weaker binding. In turn, B1 registered a Kd of 630 nM. This lies in the sub-micromolar range.

B2: B.PSelscFv-Crry (2.12scFv-Crry, blocking) (antibody)
chain: MPMGSLQPLATLYLLGMLVASVLAHHHHHHIEGREVKLVESGGGLVQPGSSMKLSCTTSGFTFSDYYMAWVRQVPEKGLEWVANINYDGSSAYYLDSFKSRFTISRDNEKNILYLQMSSLKSEDTATYYCARGDWFVYWGQGTLVTVSAGGGGSGGGGSGGGGSDIQMTQSPSSMSASLGERVTITCKASQDINSYLNWFQQKPGKSPKTLIFRANRLVDGVPSRFSGSGSGQDYSLTISSLEFEDVGIYYCLQYAEFPFTFGSGTKLEIKGGGGSGGGGSCPAPSQLPSAKPINLTDESMFPIGTYLLYECLPGYIKRQFSITCKQDSTWTSAEDKCIRKQCKTPSDPENGLVHVHTGIQFGSRINYTCNQGYRLIGSSSAVCVITDQSVDWDTEAPICEWIPCEIPPGIPNGDFFSSTREDFHYGMVVTYRCNTDARGKALFNLVGEPSLYCTSNDGEIGVWSGPPPQCIELNKCTPPPYVENAVMLSENRSLFSLRDIVEFRCHPGFIMKGASSVHCQSLNKWEPELPSCFKGVICRLPQEMSGFQKGLGMKKEYYYGENVTLECEDGYTLEGSSQSQCQSDGSWNPLLAKCVSRSIIEGRHHHHHH
Regarding B2, binding was put at a Kd of 333 nM.
